Here are results for one molecule from patent US20230159655A1 (AKESO BIOPHARMA, published 2023).

For test [1], the target named is T1, human NT5E-Biotin (NT5E, GenbankID: NP_002517.1, position: 1-552) (human, UniProt P21589 27-552, biotin (site not stated)).
T1 construct: range 1-552; Biotinylated antigen captured on streptavidin-coated plates; also called HNT5E-Biotin; human NTSE-Biotin
T1 sequence (looked up): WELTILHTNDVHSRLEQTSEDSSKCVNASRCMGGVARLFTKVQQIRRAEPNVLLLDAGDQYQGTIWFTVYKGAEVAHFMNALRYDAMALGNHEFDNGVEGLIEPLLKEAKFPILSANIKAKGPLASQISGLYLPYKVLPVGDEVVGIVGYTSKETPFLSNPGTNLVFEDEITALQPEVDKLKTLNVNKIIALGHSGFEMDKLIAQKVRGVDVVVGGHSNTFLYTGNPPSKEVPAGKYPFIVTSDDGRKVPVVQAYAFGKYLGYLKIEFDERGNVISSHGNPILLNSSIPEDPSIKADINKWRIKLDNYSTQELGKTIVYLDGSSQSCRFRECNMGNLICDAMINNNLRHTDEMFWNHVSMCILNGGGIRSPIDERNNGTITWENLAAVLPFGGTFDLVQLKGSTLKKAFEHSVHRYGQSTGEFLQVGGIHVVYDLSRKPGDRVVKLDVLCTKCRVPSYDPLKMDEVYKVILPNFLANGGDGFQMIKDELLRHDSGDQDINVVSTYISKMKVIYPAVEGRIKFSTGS
Nature of the test: ELISA on SA-captured NT5E-Biotin; antibody 0 (blank); replicate 1. How it is done:
(§1) Experimental steps: a microplate was coated with streptavidin at 2 μg/mL, and then the microplate was incubated at 4° C. for 12 hours. The antigen-coated microplate was rinsed for once with PBST after incubation, and then blocked with a PBST solution containing 1% BSA as a microplate blocking solution for 2 hours. After blocking, the microplate was washed 3 times with PBST. […] The antibody serially diluted with the PBST solution was added to the wells of the microplate. The microplate containing the test antibodies was incubated at 37° C. for 30 minutes, and then washed 3 times with PBST. After the plate was washed, the secondary antibody working solution of HRP-labeled goat anti-human IgG (H+L) (Jackson, Cat. No. 109-035-088) diluted in a ratio of 1:5000 or HRP-labeled goat anti-mouse IgG (H+L) (Jackson, Cat. No. 115-035-062) diluted in a ratio of 1:5000 was added, and then the plate was incubated at 37° C. for 30 minutes. After incubation, the plate was washed 4 times with PBST, TMB (Neogen, 308177) was added in the dark for color development for 5 min, and then a stop solution was added to terminate chromogenic reaction. The microplate was put into a microplate reader immediately, and the OD value of each well in the microplate was read at the light wavelength of 450 nm. The data were analyzed by SoftMax Pro 6.2.1.

Test [2] concerns the target T1, human NT5E-Biotin (NT5E, GenbankID: …). The test can be described thus: ELISA on SA-captured NT5E-Biotin; antibody 0 (blank); replicate 2. As to the method: as §1
For orientation: ELISA stands for enzyme-linked immunosorbent assay.

Test [3] has the same target. Nature of the test: ELISA on SA-captured NT5E-Biotin; antibody 0.333 ug/mL; replicate 1. How it is done:
as §1

For test [4] the target is unchanged. Nature of the test: ELISA on SA-captured NT5E-Biotin; antibody 0.333 ug/mL; replicate 2. How it is done:
as §1

Test [5] has the same target. Nature of the test: ELISA on SA-captured NT5E-Biotin; antibody 0.333 ug/mL diluted 1:3; replicate 1. As to the method: as §1
The target is the same in test [6]. The test can be described thus: ELISA on SA-captured NT5E-Biotin; antibody 0.333 ug/mL diluted 1:3; replicate 2. As to the method: as §1
Test [7] has the same target. The test can be described thus: ELISA on SA-captured NT5E-Biotin; antibody 0.333 ug/mL diluted 1:9; replicate 1. As to the method:
as §1

For test [8] the target is unchanged. Nature of the test: ELISA on SA-captured NT5E-Biotin; antibody 0.333 ug/mL diluted 1:27; replicate 2. How it is done:
as §1

The target is the same in test [9]. Nature of the test: ELISA on SA-captured NT5E-Biotin; antibody 0.333 ug/mL diluted 1:81; replicate 1. How it is done:
as §1

Test [10] shares this target. The test can be described thus: ELISA on SA-captured NT5E-Biotin; antibody 0.333 ug/mL diluted 1:81; replicate 2. How it is done:
as §1

Test [11] shares this target. Nature of the test: ELISA on SA-captured NT5E-Biotin; antibody 0.333 ug/mL diluted 1:243; replicate 1. How it is done: as §1
Test [12] has the same target. Nature of the test: ELISA on SA-captured NT5E-Biotin; antibody 0.333 ug/mL diluted 1:243; replicate 2. How it is done: as §1
Test [13] shares this target. Nature of the test: ELISA on SA-captured NT5E-Biotin; antibody 0.333 ug/mL diluted 1:729; replicate 1. How it is done:
as §1

Test [14] shares this target. The test can be described thus: ELISA on SA-captured NT5E-Biotin; antibody 0.333 ug/mL diluted 1:729; replicate 2. As to the method:
as §1

B1: murine anti-CD73 monoclonal antibody 19F3 (antibody, V domains shown)
VH: EVQLQQSGPELVKPGASMRMSCKASGYSFTGYTMNWVKQSHGKNLEWIGLINPYNAGTSYNQKFKGKATLTVDKSSSTAYMELLSLTSEDSAVYYCARSEYRYGGDYFDYWGQGTTLTVSS
VL: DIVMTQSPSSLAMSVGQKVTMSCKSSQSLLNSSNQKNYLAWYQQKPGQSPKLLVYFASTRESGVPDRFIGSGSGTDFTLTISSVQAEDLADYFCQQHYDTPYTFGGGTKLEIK
notes: Mouse hybridoma antibody purified on protein A; also called murine antibody 19F3; antibody secreted by hybridoma cell line LT014 (CD73-19F3)
In the case of B1, the “OD 450 nm” value was determined as 0.06 OD450 in test [1]; 0.062 OD450 in test [2]; 2.71 OD450 in test [3]; 2.74 OD450 in test [4]; 2.74 OD450 in test [5]; 2.76 OD450 in test [6]. In addition, the “OD 450 nm” value turned out to be 2.57 OD450 in [7]; 2.36 OD450 in test [8]; 1.69 OD450 in test [9]; 1.77 OD450 in test [10]; 1 OD450 in test [11]; 1 OD450 in test [12]. Besides, the entries for the “OD 450 nm” value in [13] and in [14] were 0.446 OD450 and 0.47 OD450, respectively.
